Results published in article PMC10122671, “IS21 family transposase cleaved donor complex traps two right-handed superhelical crossings”.

What was measured:
[1] = target: Geobacillus stearothermophilus IstA (IS5376 transposase, IS21 family) (Geobacillus stearothermophilus); experiment: cryo-EM structure; IstA mixed 1:1.5 with the pre-cleaved right TIR DNA (5-nt 5' overhang), complex isolated by gel filtration; 50 mM HEPES pH 7.5, 150 mM NaCl, 5 mM MgCl2, 1 mM DTT, 0.005% Tween-20; 3.4 Å, C2 symmetry
[2] = target: T1, IstA-MBP (Geobacillus stearothermophilus, UniProt Q45618 1-400); experiment: fluorescence anisotropy; apparent Kd; Hill coefficient 3.6; 5 mM Mg2+; Fluorescence anisotropy: 50 mM HEPES pH 7.5, 150 mM NaCl, 5 mM MgCl2, 10% glycerol, 1 mM beta-mercaptoethanol, 0.1 mg/ml BSA, 5 nM DNA, 37 °C, 5 min; settings: protein: recombinant; tags: C-terminal TEV-cleavable MBP-His6; label: 5'-FAM on strand 1; blunt
T1 sequence: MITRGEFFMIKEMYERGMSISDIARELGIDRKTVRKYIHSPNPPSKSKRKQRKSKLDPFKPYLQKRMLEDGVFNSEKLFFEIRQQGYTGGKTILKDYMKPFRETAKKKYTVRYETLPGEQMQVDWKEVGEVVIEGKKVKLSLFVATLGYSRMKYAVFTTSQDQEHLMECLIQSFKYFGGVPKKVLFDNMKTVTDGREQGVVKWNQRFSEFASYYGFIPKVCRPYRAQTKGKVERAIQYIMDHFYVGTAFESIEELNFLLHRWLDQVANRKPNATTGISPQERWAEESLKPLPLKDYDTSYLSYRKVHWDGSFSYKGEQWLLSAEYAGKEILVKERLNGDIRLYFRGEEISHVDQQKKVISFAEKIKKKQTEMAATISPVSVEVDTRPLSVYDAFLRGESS

[3] = target: T2, IstA (Geobacillus stearothermophilus, UniProt Q45618 1-400); experiment: cryo-EM structure (3.4 A); 5 mM Mg2+; IstA tetramer with two DNA ends; Fluorescence anisotropy: 50 mM HEPES pH 7.5, 150 mM NaCl, 5 mM MgCl2, 10% glycerol, 1 mM beta-mercaptoethanol, 0.1 mg/ml BSA, 5 nM DNA, 37 °C, 5 min; settings: protein: recombinant; tags: MBP-His6 tag removed by TEV; 5' overhang 5 nt on strand 2; two duplex copies per tetramer
T2 sequence: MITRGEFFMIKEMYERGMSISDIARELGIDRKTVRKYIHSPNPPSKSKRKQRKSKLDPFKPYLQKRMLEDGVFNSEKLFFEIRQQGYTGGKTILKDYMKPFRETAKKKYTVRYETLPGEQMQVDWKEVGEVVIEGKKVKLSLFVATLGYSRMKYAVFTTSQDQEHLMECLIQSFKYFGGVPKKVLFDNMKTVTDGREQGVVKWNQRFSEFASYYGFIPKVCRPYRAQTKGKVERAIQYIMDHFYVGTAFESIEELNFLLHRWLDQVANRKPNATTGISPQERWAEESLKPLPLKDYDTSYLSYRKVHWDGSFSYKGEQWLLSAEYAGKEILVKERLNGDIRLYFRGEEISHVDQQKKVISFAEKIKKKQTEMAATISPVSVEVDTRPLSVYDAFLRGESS

[4] = target: T1, IstA-MBP; experiment: fluorescence anisotropy; apparent Kd; Hill coefficient 1.5; 5 mM Mg2+; Fluorescence anisotropy: 50 mM HEPES pH 7.5, 150 mM NaCl, 5 mM MgCl2, 10% glycerol, 1 mM beta-mercaptoethanol, 0.1 mg/ml BSA, 5 nM DNA, 37 °C, 5 min; settings: protein: recombinant; tags: C-terminal TEV-cleavable MBP-His6; label: 5'-FAM on strand 1; blunt
[5] = target: T1, IstA-MBP; experiment: fluorescence anisotropy; apparent Kd; Hill coefficient 1.2; 5 mM Mg2+; Fluorescence anisotropy: 50 mM HEPES pH 7.5, 150 mM NaCl, 5 mM MgCl2, 10% glycerol, 1 mM beta-mercaptoethanol, 0.1 mg/ml BSA, 5 nM DNA, 37 °C, 5 min; settings: protein: recombinant; tags: C-terminal TEV-cleavable MBP-His6; label: 5'-FAM on strand 1; blunt
[6] = target: T1, IstA-MBP; experiment: fluorescence anisotropy; apparent Kd; Hill coefficient 2.2; 5 mM Mg2+; Fluorescence anisotropy: 50 mM HEPES pH 7.5, 150 mM NaCl, 5 mM MgCl2, 10% glycerol, 1 mM beta-mercaptoethanol, 0.1 mg/ml BSA, 5 nM DNA, 37 °C, 5 min; settings: protein: recombinant; tags: C-terminal TEV-cleavable MBP-His6; label: 5'-FAM on strand 1; blunt

Q: For “Geobacillus stearothermophilus IstA (IS5376 transposase, IS21 family) (enzyme)”, which stoichiometry N [1] is on record?
A: 4

B1: R1-R2 (pre-cleaved full right TIR) (dsDNA)
DNA 1: CCTTCTGGGGAATTTTAAACCGGCGATTTTGGGGAAAAAATAATCGGCCTTGACA
DNA 2: TGTCAAGGCCGATTATTTTTTCCCCAAAATCGCCGGTTTAAAATTCCCCAGAAGG
Q: Which Kd [2] does the source give for B1 here?
A: 125 nM

B2: Pre-cleaved right TIR with 5 nt 5' overhang (dsDNA)
DNA 1: CCTTCTGGGGAATTTTAAACCGGCGATTTTGGGGAAAAAATAATCGGCCTTGACA
DNA 2: ATTCATGTCAAGGCCGATTATTTTTTCCCCAAAATCGCCGGTTTAAAATTCCCCAGAAGG
Q: Does B2 bind [3]?
A: binds

B3: Rd60 (dsDNA)
DNA 1: TGCTTGCGATGATCCGACGTGTTAGCCACGCTGACTAGTTATGCCATGCCTCCCTTCAGG
DNA 2: CCTGAAGGGAGGCATGGCATAACTAGTCAGCGTGGCTAACACGTCGGATCATCGCAAGCA
Q: B3 was tested. Which Kd [4] did it give?
A: 191 nM

B4: R1 (27 bp right TIR) (dsDNA)
DNA 1: TTGGGGAAAAAATAATCGGCCTTGACA
DNA 2: TGTCAAGGCCGATTATTTTTTCCCCAA
Q: B4 was tested. Which Kd [5] did it give?
A: 176 nM

B5: Rd27 (dsDNA)
DNA 1: TGCTAACACGTCGGATCATCGCAAGCA
DNA 2: TGCTTGCGATGATCCGACGTGTTAGCA
Q: B5 was tested. Which Kd [6] did it give?
A: 121 nM
